Reverse-splicing fitness data for 84 variants are collected here from the RNAGym collection of RNA variant scans (doi:10.1093/molbev/msab373).

B1: Azoarcus group I ribozyme (parent)
chain: GUGCCUUGCGCCGGGAAACCACGCAAGGGAUGGUGUCAAAUUCGGCGAAACCUAAGCGCCCGCCCGGGCGUAUGGCAACGCCGAGCCAAGCUUCGGCGCCUGCGCCGAUGAAGGUGUAGAGACUAGACGGCACCCACCUAAGGCAAACGCUAUGGUGAAGGCAUAGUCCAGGGAGUGGCGAAAGUCACACAAACCGG

This data set covers variants of B1. Kind of data set: reverse-splicing fitness (ratio to wild type); higher = more active; in vitro selection; Mg2+ level not given. In outline: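 An in vitro group I ribozyme library with randomized positions was T7-transcribed and gel-purified. In triplicate, 10 pmol RNA in EPPS pH 7.5 was reacted with 50 pmoles of a 30-nt RNA substrate for 1 h at 37 °C across several added MgCl2 levels (1–48 mM), then stopped with EDTA. Products were reverse transcribed from a substrate-complementary primer, PCR-amplified and sequenced (HiSeq 4000). Fitness is a variant's read proportion after selection over that before, normalised to wild type.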
On to C82U A120U A145U C150G C169U U176C, for which the reverse-splicing fitness is 0.00297.

Take C82U A111U A120G A145G C169U: the reverse-splicing fitness came to 0.00849.

Consider C82G A111G A145G C150U C169A U176A, for which the reverse-splicing fitness was determined as 0.0171.

For C82U A111C A120C A145C C150U, the reverse-splicing fitness stood at 0.0104.

Take C82G A111G A145C C150G C169G U176C: the reverse-splicing fitness came out at 0.00856.

Consider C82A A111C A120G A145C C169G U176C, for which the reverse-splicing fitness was determined as 0.0156.

C82U A111C A120C A145U C150G U176A: the reverse-splicing fitness is 0.00578.

Take C82U A120G A145G: the reverse-splicing fitness is 0.0245.

Turning to C82G A111G A120U C150U, the reverse-splicing fitness was 0.0348.

C82G A111U A120C A145G C150U C169G U176G: the reverse-splicing fitness was 0.00632.

In the case of C82U A111C A120G C150A C169U U176C, the reverse-splicing fitness amounted to 0.0146.

Take A120U C150U C169U U176C: the reverse-splicing fitness is 0.083.

Take C82U A111C A120U A145U: the reverse-splicing fitness is 0.0254.

In the case of C82A A111U A120C A145C C169U U176G, the reverse-splicing fitness is 0.00416.

As for C82U A111G A120C A145C C150U C169A U176C, the reverse-splicing fitness turned out to be 0.00487.

Regarding C82G A111G A145G C150A C169A U176C, the reverse-splicing fitness was 0.0222.

Turning to C82A A120U A145G U176G, the reverse-splicing fitness is 0.0073.

With A111U A120G A145C C150U C169U, the reverse-splicing fitness was determined as 0.0397.

C82G A111C A145U C150A C169G U176C: the reverse-splicing fitness came out at 0.0181.

Consider C82U A111U A120G A145C C169G, for which the reverse-splicing fitness was determined as 0.00962.

On to C82G A120G C169U, for which the reverse-splicing fitness stood at 0.0237.

In the case of C82G A111G C169A U176G, the reverse-splicing fitness turned out to be 0.00537.

With C82G A111G A145U, the reverse-splicing fitness was 0.454.

Take C82U A111C A120C A145U C150U C169U U176A: the reverse-splicing fitness amounted to 0.0142.

Consider C82G C150U C169G, for which the reverse-splicing fitness worked out at 0.0104.

Consider A120G A145U C169A U176A, for which the reverse-splicing fitness was 0.113.

As for A120U A145G C150A C169U, the reverse-splicing fitness amounted to 0.0612.

Consider C82U A111G A120C C150G C169G, for which the reverse-splicing fitness was found to be 0.00713.

Consider C82U A120G A145U C150U C169U U176A, for which the reverse-splicing fitness amounted to 0.022.

As to C82U A120G A145U C150U C169U U176C, the reverse-splicing fitness came out at 0.0154.

On to C82A A111C A120C A145G C150A C169G, for which the reverse-splicing fitness worked out at 0.00833.

For C82U A111G A120C C150U C169U U176A, the reverse-splicing fitness came to 0.0154.

With C82G A111C A120U A145G C169G U176A, the reverse-splicing fitness worked out at 0.00387.

Regarding C82A A111C A120G A145C C150U C169A, the reverse-splicing fitness was determined as 0.00801.

Take C82U A111U A145G U176C: the reverse-splicing fitness came to 0.159.

For the variant A111U A145G C150U C169U U176G, the reverse-splicing fitness was 0.00652.

With A111U A120G A145U C150A C169U U176G, the reverse-splicing fitness came out at 0.0052.

C82U A111U A120C C150U C169A U176G: the reverse-splicing fitness was 0.00474.

On to C82U A120G A145G C150A U176A, for which the reverse-splicing fitness was determined as 0.0092.

On to C82U A111G A120G A145C C150G U176G, for which the reverse-splicing fitness came to 0.00261.

Take C82G A111U A120U A145G C150U: the reverse-splicing fitness amounted to 0.0351.

Consider C82G A111U A145C C150A C169U U176G, for which the reverse-splicing fitness was found to be 0.00599.

C82A A111U A120G A145G C169G: the reverse-splicing fitness turned out to be 0.0107.

Consider C82U A120U A145U C169U U176A, for which the reverse-splicing fitness stood at 0.00227.

For C82U A145G C150A, the reverse-splicing fitness stood at 0.103.

With C82A A111U A120G C150A U176C, the reverse-splicing fitness came to 0.0188.

Regarding C82A A111U A120G A145G C150U C169A, the reverse-splicing fitness stood at 0.0106.

Regarding A145U C150A C169G U176A, the reverse-splicing fitness is 0.0176.

As to C82A A111G A120G A145U U176C, the reverse-splicing fitness worked out at 0.0167.

With C82U A111G A120C A145C C150G C169A, the reverse-splicing fitness was 0.0076.

For the variant C82A A111U A145C C150U C169G U176G, the reverse-splicing fitness worked out at 0.00743.

As for C82A A145C C169A U176A, the reverse-splicing fitness was 0.0087.

Turning to C82U A111U A145C C150G C169U, the reverse-splicing fitness was 0.00864.

Take C82U A111C A120U A145G C169A U176C: the reverse-splicing fitness was 0.0035.

Take C82G A111U C150G C169G: the reverse-splicing fitness is 0.00744.

As for C82A A111U A120U A145C C150U C169G U176C, the reverse-splicing fitness came to 0.00274.

With A111U A145G, the reverse-splicing fitness amounted to 0.921.

Regarding A111G A120G A145G C150U C169U U176G, the reverse-splicing fitness came out at 0.00628.

As for C82G A111C A120U C150U U176G, the reverse-splicing fitness came to 0.00397.

With C82A A120U A145U C150G U176C, the reverse-splicing fitness was determined as 0.00823.

On to C82A A111G A145G C150A, for which the reverse-splicing fitness amounted to 0.0514.

Regarding C82U A111C A120U C150A U176C, the reverse-splicing fitness stood at 0.00573.

For the variant C82A A111C A120C A145U C150A C169A U176A, the reverse-splicing fitness was 0.0155.

In the case of A111G A145U C150A C169U U176G, the reverse-splicing fitness came to 0.00519.

A145C C150G C169U U176C: the reverse-splicing fitness came to 0.0427.

For C82G A120U A145C U176A, the reverse-splicing fitness was 0.0712.

As to C82U A111U A120U A145C C150U C169U U176C, the reverse-splicing fitness worked out at 0.00256.

Consider C82G A111C A120C A145C C150U U176C, for which the reverse-splicing fitness was determined as 0.0129.

Turning to C82G A145C C169G, the reverse-splicing fitness was determined as 0.0115.

Turning to C82A A111G A120U A145C C169A U176C, the reverse-splicing fitness was 0.00231.

Take C82G A111C A120G A145U C169U U176C: the reverse-splicing fitness was 0.014.

With C82U A111C A120C A145C C150G C169A U176A, the reverse-splicing fitness came out at 0.00661.

Consider A111G A120C C150G C169A U176G, for which the reverse-splicing fitness was 0.00466.

On to C82U A111C A120U A145C C150A C169A U176G, for which the reverse-splicing fitness is 0.00183.

For the variant C82U A111C A120U A145C C150A C169A U176A, the reverse-splicing fitness stood at 0.00222.

With C82U A111G A120U C169U, the reverse-splicing fitness stood at 0.00493.

Take C82U A111U A120C A145C C150U U176A: the reverse-splicing fitness came out at 0.00801.

Turning to C82G A111C A120G A145U C150A U176C, the reverse-splicing fitness amounted to 0.0172.

On to C82A A111C A120U A145G C150G U176G, for which the reverse-splicing fitness stood at 0.00449.

For the variant C82U A111G C169U, the reverse-splicing fitness turned out to be 0.0128.

Turning to A111U A120G C150U C169A U176C, the reverse-splicing fitness came to 0.0245.

On to C82U A111U A120U C150A C169U U176A, for which the reverse-splicing fitness stood at 0.0059.

As to C82U A111U A120C C169A U176G, the reverse-splicing fitness came to 0.00513.

Regarding C82G A111U A120U A145G C150A C169G U176G, the reverse-splicing fitness turned out to be 0.00257.
